According to paper PMC11260452, “Cooperative Gsx2–DNA binding requires DNA bending and a novel Gsx2 homeodomain interface”:

Columns and labels:
Gsx2 167-305 [1] = molecular target: T1, Gsx2 167-305 (Mus musculus, UniProt P31316 167-305); assay: EMSA; similar free probe depletion, lower cooperativity; ITC: 50 mM sodium phosphate pH 6.5, 150 mM NaCl, 20 C; EMSA: 35 nM probe, 15 min room temperature, buffer as in cited ref 31; conditions: protein: recombinant; tags: N-terminal His-tag, cleaved with PreScission; chain copies: 2; label: 5' IRDye700 on complementary strand (linker S14); blunt
Gsx2HD S212E [2] = molecular target: T2, Gsx2HD S212E (Mus musculus, UniProt P31316 203-264, S212E); assay: EMSA; binds; reduced cooperativity; ITC: 50 mM sodium phosphate pH 6.5, 150 mM NaCl, 20 C; EMSA: 35 nM probe, 15 min room temperature, buffer as in cited ref 31; conditions: protein: recombinant; tags: N-terminal His-tag, cleaved with PreScission; label: 5' IRDye700 on complementary strand (linker S14); blunt
Gsx2HD L216E [3] = molecular target: T3, Gsx2HD L216E (Mus musculus, UniProt P31316 203-264, L216E); assay: as above; conditions: protein: recombinant; tags: N-terminal His-tag, cleaved with PreScission; label: 5' IRDye700 on complementary strand (linker S14); blunt
Gsx2HD L231E [4] = molecular target: T4, Gsx2HD L231E (Mus musculus, UniProt P31316 203-264, L231E); assay: as above; conditions: protein: recombinant; tags: N-terminal His-tag, cleaved with PreScission; label: 5' IRDye700 on complementary strand (linker S14); blunt
Gsx1HD [5] = molecular target: T5, Gsx1HD (Mus musculus, UniProt P31315 146-207); assay: ITC; K 5.5 ± 0.8 x10^7 M-1; N 0.96; ITC: 50 mM sodium phosphate pH 6.5, 150 mM NaCl, 20 C; EMSA: 35 nM probe, 15 min room temperature, buffer as in cited ref 31; conditions: protein: recombinant; 5' overhang 1 nt on each strand
Gsx2HD I234E = Gsx2HD I234E (Mus musculus, UniProt P31316 203-264, I234E); assay: ITC; K 5.1 ± 4.2 x10^7 M-1; N 1.05; Fig S6 isotherm 14.7 nM; ITC: 50 mM sodium phosphate pH 6.5, 150 mM NaCl, 20 C; EMSA: 35 nM probe, 15 min room temperature, buffer as in cited ref 31; conditions: protein: recombinant; tags: N-terminal His-tag, cleaved with PreScission; 5' overhang 1 nt on each strand
Gsx2HD [6] = molecular target: T6, Gsx2HD (Mus musculus, UniProt P31316 203-264); assay: ITC; K 6.8 ± 4.2 x10^7 M-1; N 1.02; ITC: 50 mM sodium phosphate pH 6.5, 150 mM NaCl, 20 C; EMSA: 35 nM probe, 15 min room temperature, buffer as in cited ref 31; conditions: protein: recombinant; tags: N-terminal His-tag, cleaved with PreScission; chain copies: 2; 5' overhang 1 nt on each strand
Gsx2 167-305 [7] = molecular target: T1, Gsx2 167-305; assay: ITC; K 1.3 ± 0.6 x10^7 M-1; N 0.85; ITC: 50 mM sodium phosphate pH 6.5, 150 mM NaCl, 20 C; EMSA: 35 nM probe, 15 min room temperature, buffer as in cited ref 31; conditions: protein: recombinant; tags: N-terminal His-tag, cleaved with PreScission; chain copies: 2; 5' overhang 1 nt on each strand
Gsx2HD S212E [8] = molecular target: T2, Gsx2HD S212E; assay: EMSA; binds equally to WT; little to no cooperativity; ITC: 50 mM sodium phosphate pH 6.5, 150 mM NaCl, 20 C; EMSA: 35 nM probe, 15 min room temperature, buffer as in cited ref 31; conditions: protein: recombinant; tags: N-terminal His-tag, cleaved with PreScission; label: 5' IRDye700 on complementary strand (linker S14); blunt
Gsx2HD L216E [9] = molecular target: T3, Gsx2HD L216E; assay: as above; conditions: protein: recombinant; tags: N-terminal His-tag, cleaved with PreScission; label: 5' IRDye700 on complementary strand (linker S14); blunt
Gsx2HD L231E [10] = molecular target: T4, Gsx2HD L231E; assay: as above; conditions: protein: recombinant; tags: N-terminal His-tag, cleaved with PreScission; label: 5' IRDye700 on complementary strand (linker S14); blunt
Gsx2HD [11] = molecular target: T6, Gsx2HD; assay: ITC; K 2.8 ± 1.4 x10^7 M-1; N 0.98; ITC: 50 mM sodium phosphate pH 6.5, 150 mM NaCl, 20 C; EMSA: 35 nM probe, 15 min room temperature, buffer as in cited ref 31; conditions: protein: recombinant; tags: N-terminal His-tag, cleaved with PreScission; chain copies: 2; 5' overhang 1 nt on each strand
Gsx2 167-305 [12] = molecular target: T1, Gsx2 167-305; assay: ITC; K 0.7 ± 0.2 x10^7 M-1; N 0.94; ITC: 50 mM sodium phosphate pH 6.5, 150 mM NaCl, 20 C; EMSA: 35 nM probe, 15 min room temperature, buffer as in cited ref 31; conditions: protein: recombinant; tags: N-terminal His-tag, cleaved with PreScission; chain copies: 2; 5' overhang 1 nt on each strand
Gsx1HD [13] = molecular target: T5, Gsx1HD; assay: ITC; K 2.4 ± 0.9 x10^7 M-1; N 0.97; ITC: 50 mM sodium phosphate pH 6.5, 150 mM NaCl, 20 C; EMSA: 35 nM probe, 15 min room temperature, buffer as in cited ref 31; conditions: protein: recombinant; 5' overhang 1 nt on each strand

T1 sequence (P31316 167-305): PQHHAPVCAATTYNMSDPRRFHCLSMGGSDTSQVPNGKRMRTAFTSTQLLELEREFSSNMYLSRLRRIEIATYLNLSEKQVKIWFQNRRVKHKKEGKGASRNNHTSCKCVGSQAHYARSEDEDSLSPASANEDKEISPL
T2 sequence (P31316 203-264 S212E): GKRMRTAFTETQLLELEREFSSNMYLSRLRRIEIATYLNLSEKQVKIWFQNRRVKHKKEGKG
T5 sequence (P31315 146-207): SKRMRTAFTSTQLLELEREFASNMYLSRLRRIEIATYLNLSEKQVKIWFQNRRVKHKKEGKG
T6 sequence (P31316 203-264): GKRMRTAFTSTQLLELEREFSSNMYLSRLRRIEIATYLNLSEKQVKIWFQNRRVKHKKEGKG
T4 sequence (P31316 203-264 L231E): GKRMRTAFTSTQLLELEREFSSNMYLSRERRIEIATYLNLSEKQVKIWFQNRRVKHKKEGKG
T3 sequence (P31316 203-264 L216E): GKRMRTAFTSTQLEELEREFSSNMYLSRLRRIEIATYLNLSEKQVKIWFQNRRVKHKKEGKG
Sequence of Gsx2HD I234E (P31316 203-264 I234E): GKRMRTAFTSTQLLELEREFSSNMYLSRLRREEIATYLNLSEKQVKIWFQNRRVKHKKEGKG

B1: GCGGG spacer dimer probe (dsDNA)
DNA 1: TCCAACTAATTAGCGGGTAATTCGTAGTGCGGGCGTGGCT
DNA 2: AGCCACGCCCGCACTACGAATTACCCGCTAATTAGTTGGA
For B1, the “cooperativity factor (tau)” value (Gsx2 167-305 [1]) was 12.6 tau cooperativity factor (mean of 3 G/C spacer probes).

B2: GCCGG spacer dimer probe (dsDNA)
DNA 1: TCCAACTAATTAGCCGGTAATTCGTAGTGCGGGCGTGGCT
DNA 2: AGCCACGCCCGCACTACGAATTACCGGCTAATTAGTTGGA
In the case of B2, the “cooperativity factor (tau)” value (Gsx2 167-305 [1]) is reported as 12.6 tau cooperativity factor (mean of 3 G/C spacer probes).

B3: GGGCC spacer dimer probe (dsDNA)
DNA 1: TCCAACTAATTAGGGCCTAATTCGTAGTGCGGGCGTGGCT
DNA 2: AGCCACGCCCGCACTACGAATTAGGCCCTAATTAGTTGGA
In the case of B3, the “cooperativity factor (tau)” value (Gsx2 167-305 [1]) is reported as 12.6 tau cooperativity factor (mean of 3 G/C spacer probes).

B4: 7bpS / AAATT spacer dimer probe (dsDNA)
DNA 1: TCCAACTAATTAAAATTTAATTCGTAGTGCGGGCGTGGCT
DNA 2: AGCCACGCCCGCACTACGAATTAAATTTTAATTAGTTGGA
B4: binds (Gsx2HD S212E [2]); binds (Gsx2HD L216E [3]); binds (Gsx2HD L231E [4]).

B5: TAATTA consensus 15-mer (dsDNA)
DNA 1: TGAGCTAATTAAAGC
DNA 2: AGCTTTAATTAGCTC
With B5 the Kd (Gsx1HD [5]) was 18 nM, the Kd (Gsx2HD I234E) was 20 nM and the Kd (Gsx2HD [6]) was 15 nM. The Kd (Gsx2 167-305 [7]) was 77 nM.

B6: 8bpS dimer probe (dsDNA)
DNA 1: TCCAACTAATTAAAGATTTAATTCGTAGTGCGGGCGTGGCT
DNA 2: AGCCACGCCCGCACTACGAATTAAATCTTTAATTAGTTGGA
B6: binds (Gsx2HD S212E [8]); binds (Gsx2HD L216E [9]); binds (Gsx2HD L231E [10]).

B7: TAATGG 15-mer (Common Q50 site) (dsDNA)
DNA 1: TGAGCTAATGGAAGC
DNA 2: AGCTTCCATTAGCTC
In the case of B7, the Kd (Gsx2HD [11]) is reported as 36 nM, the Kd (Gsx2 167-305 [12]) is reported as 143 nM and the Kd (Gsx1HD [13]) is reported as 42 nM.
